B1: Adhesion G protein-coupled receptor L3 (Mus musculus), Q80TS3 (parent)
chain: MWPPQLLILTMLLAPVVHGGKHNERHPALAAPLRHAERSPGGALPPRHLLQQPAAERSTAHRGQGPRGAARGVRGPGAPGAQIAAQAFSRAPIPMAVVRRELSCESYPIELRCPGTDVIMIESANYGRTDDKICDSDPAQMENIRCYLPDAYKIMSQRCNNRTQCAVVAGPDVFPDPCPGTYKYLEVQYECVPYKVEQKVFLCPGLLKGVYQSEHLFESDHQSGAWCKDPLQASDKIYYMPWTPYRTDTLTEYSSKDDFIAGRPTTTYKLPHRVDGTGFVVYDGALFFNKERTRNIVKFDLRTRIKSGEAIIANANYHDTSPYRWGGKSDIDLAVDENGLWVIYATEQNNGKIVISQLNPYTLRIEGTWDTAYDKRSASNAFMICGILYVVKSVYEDDDNEATGNKIDYIYNTDQSKDSLVDVPFPNSYQYIAAVDYNPRDNLLYVWNNYHVVKYSLDFGPLDSRSGPVHHGQVSYISPPIHLDSELERPPVRGISTTGSLGMGSTTTSTTLRTTTWNIGRSTTASLPGRRNRSTSTPSPAVEVLDDVTTHLPSAASQIPAMEESCEAVEAREIMWFKTRQGQVAKQPCPAGTIGVSTYLCLAPDGIWDPQGPDLSNCSSPWVNHITQKLKSGETAANIARELAEQTRNHLNAGDITYSVRAMDQLVGLLDVQLRNLTPGGKDSAARSLNKLQKRERSCRAYVQAMVETVNNLLQPQALNAWRDLTTSDQLRAATMLLDTVEESAFVLADNLLKTDIVRENTDNIQLEVARLSTEGNLEDLKFPENMGHGSTIQLSANTLKQNGRNGEIRVAFVLYNNLGPYLSTENASMKLGTEAMSTNHSVIVNSPVITAAINKEFSNKVYLADPVVFTVKHIKQSEENFNPNCSFWSYSKRTMTGYWSTQGCRLLTTNKTHTTCSCNHLTNFAVLMAHVEVKHSDAVHDLLLDVITWVGILLSLVCLLICIFTFCFFRGLQSDRNTIHKNLCISLFVAELLFLIGINRTDQPIACAVFAALLHFFFLAAFTWMFLEGVQLYIMLVEVFESEHSRRKYFYLVGYGMPALIVAVSAAVDYRSYGTDKVCWLRLDTYFIWSFIGPATLIIMLNVIFLGIALYKMFHHTAILKPESGCLDNINYEDNRPFIKSWVIGAIALLCLLGLTWAFGLMYINESTVIMAYLFTIFNSLQGMFIFIFHCVLQKKVRKEYGKCLRTHCCSGKSTESSIGSGKTSGSRTPGRYSTGSQSRIRRMWNDTVRKQSESSFITGDINSSASLNREGLLNNARDTSVMDTLPLNGNHGNSYSIAGGEYLSNCVQIIDRGYNHNETALEKKILKELTSNYIPSYLNNHERSSEQNRNMMNKLVNNLGSGSEDDAIVLDDAASFNHEESLGLELIHEESDAPLLPPRVYSTDNHQPHHYSRRRFPQDHSESFFPLLTDEHTEDLQSPHRDSLYTSMPALAGVPAADSVTTSTQTEAAAAKGGDAEDVYYKSMPNLGSRNHVHPLHAYYQLGRGSSDGFIVPPNKDGASPEGTSKGPAHLVTSL
partner: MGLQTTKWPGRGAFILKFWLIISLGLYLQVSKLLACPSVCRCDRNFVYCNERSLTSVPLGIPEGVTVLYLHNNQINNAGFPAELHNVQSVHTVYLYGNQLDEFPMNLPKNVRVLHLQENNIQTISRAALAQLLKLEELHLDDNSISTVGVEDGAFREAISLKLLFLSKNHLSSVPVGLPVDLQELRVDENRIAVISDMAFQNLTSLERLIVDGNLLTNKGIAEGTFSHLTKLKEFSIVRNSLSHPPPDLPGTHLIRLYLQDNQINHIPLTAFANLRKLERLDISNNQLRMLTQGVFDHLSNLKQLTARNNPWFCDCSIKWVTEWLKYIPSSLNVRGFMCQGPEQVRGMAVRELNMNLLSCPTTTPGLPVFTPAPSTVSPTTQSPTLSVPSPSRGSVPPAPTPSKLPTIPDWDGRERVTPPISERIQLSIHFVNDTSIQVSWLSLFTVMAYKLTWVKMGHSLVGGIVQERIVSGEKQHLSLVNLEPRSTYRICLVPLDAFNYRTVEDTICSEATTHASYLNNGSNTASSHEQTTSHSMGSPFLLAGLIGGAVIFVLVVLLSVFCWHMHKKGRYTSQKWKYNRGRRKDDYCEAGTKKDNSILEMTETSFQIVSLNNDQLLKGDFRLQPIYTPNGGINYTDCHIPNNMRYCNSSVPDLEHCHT
B2: Leucine-rich repeat transmembrane protein FLRT2 (Mus musculus), Q8BLU0 (parent)
chain: B1 partner

One test covers variants of B1. The conditions noted are these: with flrt2_mouse Flrt2, Q8BLU0.
Consider T267N;K269T, for which the “effect of a mutation on the interaction” value is “decreasing interaction strength”. On the same count and under the same terms, then P244N;R246T, with “decreasing interaction strength”. On the same count and under the same terms, to R324N;G326T belongs “disrupting interaction strength”. R292N;R294T: the “effect of a mutation on the interaction” value is “disrupting interaction strength”.

In a further test the parent is B2. Particulars: with agrl3_mouse Adgrl3, Q80TS3.
Regarding R186N;D188T, the “effect of a mutation on the interaction” value was “disrupting interaction strength”.
